The experiment addresses T1, GroEL chaperonin ( (purified from Escherichia …, UniProt P0A6F5 1-548)).
T1 construct: GroEL chaperonin, purified from Escherichia coli cells (HB101 strain) after expression of the plasmid pGroE4
Description: fluorescence polarisation; 30×10^-9 M denatured fluorescein-labeled protein titrated with GroEL in 20 mM Tris–HCl, pH 7.5, 20 mM DTT, 10 mM MgCl2, 300 mM NaCl; apparent constant, counted on GroEL cavities. Particulars: both partners purified. (In general: Polarisation of emitted light reports the rotation of a fluorescent probe.)

T1 sequence (P0A6F5 whole entry): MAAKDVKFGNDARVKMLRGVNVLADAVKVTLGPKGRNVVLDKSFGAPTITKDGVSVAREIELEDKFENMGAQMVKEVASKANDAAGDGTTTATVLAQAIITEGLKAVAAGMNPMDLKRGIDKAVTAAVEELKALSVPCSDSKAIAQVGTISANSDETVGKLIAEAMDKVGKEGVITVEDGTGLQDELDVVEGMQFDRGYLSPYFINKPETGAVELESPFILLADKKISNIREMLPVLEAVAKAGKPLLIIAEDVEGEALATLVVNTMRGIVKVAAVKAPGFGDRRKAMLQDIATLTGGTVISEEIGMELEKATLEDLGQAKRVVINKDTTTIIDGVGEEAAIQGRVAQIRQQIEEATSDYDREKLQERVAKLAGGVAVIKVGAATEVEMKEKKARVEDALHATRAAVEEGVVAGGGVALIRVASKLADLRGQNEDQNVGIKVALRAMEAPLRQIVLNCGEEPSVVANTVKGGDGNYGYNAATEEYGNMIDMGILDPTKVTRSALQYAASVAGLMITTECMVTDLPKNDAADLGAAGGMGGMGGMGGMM

B1: fluorescein-labeled human α-lactalbumin (natural protein, UniProt P00709 20-142, looked up)
chain: KQFTKCELSQLLKDIDGYGGIALPELICTMFHTSGYDTQAIVENNESTEYGLFQISNKLWCKSSQVPQSRNICDISCDKFLDDDITDDIMCAKKILDIKGIDYWLAHKALCTEKLEQWLCEKL
modifications: fluorescein label (fluorescein isothiocyanate), position not stated
notes: Human α-lactalbumin; The same labelled protein was used native (20 mM Tris-HCl, pH 7.5) and denatured (buffer with 20 mM DTT); the assays tell the two states apart; also called native α-lactalbumin; denatured α-lactalbumin; source: bought: Sigma (USA), used without additional purification; labelled with fluorescein isothiocyanate, PD-10 and MonoQ
Take B1: the Kd came out at 1.6 nM.
